Columns and labels:
Recombinant FGFR-1(IIIc) [1] = target: Recombinant FGFR-1(IIIc) (UniProt P11362); test: kinetic analysis (BiaCore)
Recombinant FGFR-1(IIIc) [2] = target: Recombinant FGFR-1(IIIc) (UniProt P11362); test: BiaCore 3000 biosensor, binding kinetics
Recombinant FGFR-1(IIIc) [3] = target: Recombinant FGFR-1(IIIc) (UniProt P11362); test: ELISA blocking assay: FGFR-1(IIIc) binding to immobilised FGF-1
Recombinant FGFR-1(IIIc) [4] = target: Recombinant FGFR-1(IIIc) (UniProt P11362); test: ELISA blocking assay: FGFR-1(IIIc) binding to immobilised FGF-2
[5] = target: FGFR-1(IIIc) on transfected L6 cells (UniProt P11362); test: cell-based blocking assay: 125I-FGF-2 (15 ng/ml) binding to FGFR-1(IIIc)-expressing L6 cells
Recombinant FGFR-1(IIIc) [6] = target: Recombinant FGFR-1(IIIc) (UniProt P11362); test: ELISA blocking assay: FGFR-1(IIIc) binding to FGF-1
Recombinant FGFR-1(IIIc) [7] = target: Recombinant FGFR-1(IIIc) (UniProt P11362); test: ELISA blocking assay: FGFR-1(IIIc) binding to FGF-2

Binder | Kd (Recombinant FGFR-1(IIIc) [1]) [nM] | Kd (Recombinant FGFR-1(IIIc) [2]) [nM] | IC50 (Recombinant FGFR-1(IIIc) [3]) [nM] | IC50 (Recombinant FGFR-1(IIIc) [4]) [nM] | IC50 [5] [nM] | IC50 (Recombinant FGFR-1(IIIc) [6]) [nM] | IC50 (Recombinant FGFR-1(IIIc) [7]) [nM]
FR1-H7 (antibody, V domains shown) VH: EVQLVQSGAEVKKPGASVKVSCKVSGYTFTDYYMHWVQQAPGKGLEWMGLVDPEDGETIYAEKFQGRVTITADTSTDTAYMELSSLRSEDTAVYYCARDDYMDVWGKGTLVTVSS VL: ETTLTQSPDTLSLSPGEGATLSCRASQSVSGSALAWYQQKPGQAPRLLIYDASSRATGVPDRFSGSGSGADFSLTISRLEPEDFAVYSCQQYGSSPLTFGPGTKVDVKR | 0.05 | 0.04 | 5 | 2 to 5 | < 5 | – | –
FR1-A1 (antibody, V domains shown) VH: QVQLVQSGAEVKKPGSSVKVSCKASGQTFTGYYMHWVRQAPGQGLEWMGRIIPILGIANYAQKFQGRVTITADKSTSTAYMELSSLRSEDTAVYYCARGGDLGGMDVWGQG VL: EIVLTQSPLSLPVTPGEPASISCRSSQSLRHSNGYNYLDWYLQKPGQSPQLLIYLASNRASGVPDRFSGSGSGTDFTLKISRVEAEDVGVYYCMQALQIPPTFGPGTKVDIKR | 0.7 | – | – | – | – | 5 | 10
